In PMC2651629, “Structure of the Archaeal Pab87 Peptidase Reveals a Novel Self-Compartmentalizing Protease Family” (PLoS ONE, 2009):

Experiments:
[1] = molecular target: Pyrococcus abyssi Pab87 protein (Pyrococcus abyssi); assay: AUC; sedimentation velocity, 20°C, 40,000 rpm, 10 µM protein in 150 mM Tris pH 8.5, 350 mM NaCl; c(s) and c(M) distributions (Sedfit)
[2] = molecular target: Pyrococcus abyssi Pab87 protein (Pyrococcus abyssi); assay: crystal structure; Pab87 co-crystallised with Lu-HPDO3A (200 mM), 20 mM CaCl2, 30% MPD, 100 mM sodium acetate pH 4.6, 18°C; space group P1, eight molecules per asymmetric unit; 2.2 Å
[3] = molecular target: Pyrococcus abyssi Pab87 protein (Pyrococcus abyssi); assay: cryo-EM structure; 0.5 mg/mL Pab87 in 50 mM Tris-HCl pH 8.5, 350 mM NaCl; single-particle reconstruction at around 14 Å, fitted with the X-ray structure

stoichiometry N [1]: 8
stoichiometry N [2]: 8
stoichiometry N [3]: 8
Substance: Pyrococcus abyssi Pab87 protein (enzyme)
